As usually defined, the stoichiometry N is a count of units in the complex or per binding partner.

Data on one substance can be found in publication PMC4877045.

For this assay, the target named is cleaved human TNFα (human). The assay is described as follows: SEC; SEC-HPLC on an analytic TSK G3000SWXL column, PBS mobile phase, 1 ml/min, OD280; molecular weight estimated from retention time against a protein size standard; self-association (trimer).

As for cleaved human TNFα (ligand), the stoichiometry N was 3.
